Patent US20210396744A1

Key:
[1] = molecular target: IgG; assay: sandwich liposome assay: IgG at 10 nM captured by DNA aptamer on silicon supporter, FcIII peptide liposomes bound, washed, UV-triggered release of pH 8.5 buffer, change of surface potential read (SD 0.62 mV)
[2] = molecular target: IgG; assay: sandwich liposome assay: IgG at 50 nM captured by DNA aptamer on silicon supporter, FcIII peptide liposomes bound, washed, UV-triggered release of pH 8.5 buffer, change of surface potential read (SD 2.87 mV)

surface potential variation [1]: -3.75 mV
surface potential variation [2]: -10.6 mV
Substance: FcIII peptide
